± gives the uncertainty stated by the source.
Experiment: self-splicing fitness, log relative to wild type (ln ratio); higher = more splicing; Tetrahymena group I intron in knt gene, E. coli kanamycin selection, DiMSum; sequences stand for … in CUCUCU…GGAGGGAAAAGUUAUCAGGCAUGCACCUGGUAGCUAGUCUUUAAACCAAUAGAUUGCAUCGGUUUAAAAGGCAAGACCGUCAAAUUGCGGGAAAGGGGUCAACAGCCGUUCAGUACCAAGUCUCAGGGGAAACUUUGAGAUGGCCUUGCAAAGGGUAUGGUAAUAAGCUGACGGACAUGGUCCUAACCACGCAGCCAAGUCCUAAGUCAACAGAUCUUCUGUUGAUAUGGAUGCAGUUCACAGACUAAAUGUCGGUCGGGGAAGAUGUAUUCUUCUCAUAAGAUAUAGUCGGACCUCUCCUUAAUGGGAGCUAGCGGAUGAAGUGAUGCAACACUGGAGCCGCUGGGAACUAAUUUGUAUGCGAAAGUAUAUUGAUUAGUUUUGGAGUACUCGUGGUCG
Method in brief: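 Six replicate transformations of E. coli BL21(DE3) with a pET-22b(+) library were grown overnight at 37°C or 30°C. The library randomised all eight P1ex-region intron nucleotides, the intron lying in the knt kanamycin-resistance gene, and plates were LB agar with or without 25 μg/mL kanamycin plus 100 μg/mL carbenicillin, 50 μM IPTG and 0.2% rhamnose. Pooled colonies were amplicon-sequenced on an Illumina HiSeq 2500, and fitness is the DiMSum error-weighted combination of wild-type-normalised replicate fold changes, kanamycin versus none.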

Row | Sequence | self-splicing fitness (ln) (30 °C) | self-splicing fitness (ln) (37 °C)
1 | UUAAAGCAAUAUUACGAUGA | 0.452 ± 0.081 | 0.681 ± 0.11
2 | UUAAAGCAAUAUUACGAUGG | 0.00244 ± 0.084 | 0.04 ± 0.1
3 | UUAAAGCAAUAUUACGCCCA | 0.818 ± 0.11 | 0.402 ± 0.14
4 | UUAAAGCAAUAUUACGCGCG | -0.058 ± 0.12 | 0.00297 ± 0.16
5 | UUAAAGCAAUAUUACGCUAU | -3.01 ± 0.14 | -0.748 ± 0.1
6 | UUAAAGCAAUAUUACGCUUA | -1.02 ± 0.083 | -0.561 ± 0.11
7 | UUAAAGCAAUAUUACGGAGA | -1.64 ± 0.15 | 0.00703 ± 0.2
8 | UUAAAGCAAUAUUACGGCUA | 0.185 ± 0.091 | 0.424 ± 0.12
9 | UUAAAGCAAUAUUACGGGGA | -1.02 ± 0.068 | 0.216 ± 0.1
10 | UUAAAGCAAUAUUACGGGGC | -3.68 ± 0.25 | -2.51 ± 0.32
11 | UUAAAGCAAUAUUACGGUCG | 0.224 ± 0.082 | 0.441 ± 0.095
12 | UUAAAGCAAUAUUACGGUUC | -3.46 ± 0.19 | -1.81 ± 0.18
13 | UUAAAGCAAUAUUACGUACA | 0.237 ± 0.088 | 0.0455 ± 0.12
14 | UUAAAGCAAUAUUACGUACC | -1.73 ± 0.12 | -0.333 ± 0.16
15 | UUAAAGCAAUAUUACGUAGC | -4.43 ± 0.3 | -2.96 ± 0.48
16 | UUAAAGCAAUAUUACGUCAA | -0.222 ± 0.082 | -0.107 ± 0.095
17 | UUAAAGCAAUAUUACGUCCA | -0.0955 ± 0.086 | 0.343 ± 0.11
18 | UUAAAGCAAUAUUACGUCGA | 0.349 ± 0.082 | 0.262 ± 0.095
19 | UUAAAGCAAUAUUACGUUCU | -1.08 ± 0.091 | -0.401 ± 0.12
20 | UUAAAGCAAUAUUACGUUGC | -3.24 ± 0.28 | -2.66 ± 0.3
21 | UUACAGCAAUAUUACGACAA | -0.25 ± 0.07 | 0.353 ± 0.083
22 | UUACAGCAAUAUUACGACGU | -3.61 ± 0.31 | -3.23 ± 0.4
23 | UUACAGCAAUAUUACGAUCU | -1.88 ± 0.063 | -1.02 ± 0.079
24 | UUACAGCAAUAUUACGCAUC | -3.36 ± 0.15 | -1.6 ± 0.13
25 | UUACAGCAAUAUUACGCCUG | -0.557 ± 0.054 | 0.0548 ± 0.081

Row | Sequence | self-splicing fitness (ln) (30 °C) | self-splicing fitness (ln) (37 °C)
26 | UUACAGCAAUAUUACGCGGC | -2.62 ± 0.14 | -2.03 ± 0.18
27 | UUACAGCAAUAUUACGCUGC | -2.9 ± 0.35 | –
28 | UUACAGCAAUAUUACGGAGU | -4.03 ± 0.29 | -2.7 ± 0.22
29 | UUACAGCAAUAUUACGGCCG | -0.529 ± 0.16 | -0.389 ± 0.16
30 | UUACAGCAAUAUUACGGCUG | -2.21 ± 0.17 | -1.42 ± 0.2
31 | UUACAGCAAUAUUACGUAAU | -3.27 ± 0.26 | -2.32 ± 0.19
32 | UUACAGCAAUAUUACGUACC | -1.19 ± 0.21 | -0.649 ± 0.33
33 | UUACAGCAAUAUUACGUGCC | -2.86 ± 0.15 | -0.031 ± 0.13
34 | UUAGAGCAAUAUUACGAAUG | -2.2 ± 0.14 | -2.55 ± 0.26
35 | UUAGAGCAAUAUUACGACGG | 0.111 ± 0.12 | -7.81e-05 ± 0.19
36 | UUAGAGCAAUAUUACGAUGC | -2.04 ± 0.21 | -2.57 ± 0.41
37 | UUAGAGCAAUAUUACGCAGA | 1.56 ± 0.32 | –
38 | UUAGAGCAAUAUUACGCAGG | -2.7 ± 0.2 | -0.784 ± 0.16
39 | UUAGAGCAAUAUUACGCGUA | -1.59 ± 0.11 | -0.559 ± 0.13
40 | UUAGAGCAAUAUUACGCUAG | -0.574 ± 0.12 | 0.349 ± 0.15
41 | UUAGAGCAAUAUUACGCUAU | -2.27 ± 0.23 | -1.75 ± 0.26
42 | UUAGAGCAAUAUUACGCUCA | -1.75 ± 0.18 | -0.916 ± 0.26
43 | UUAGAGCAAUAUUACGGAGG | -2.3 ± 0.13 | -1.84 ± 0.18
44 | UUAGAGCAAUAUUACGGCCA | -1.02 ± 0.34 | 0.756 ± 0.35
45 | UUAGAGCAAUAUUACGGCCU | -4.22 ± 0.39 | –
46 | UUAGAGCAAUAUUACGGCUG | -0.433 ± 0.12 | 0.354 ± 0.17
47 | UUAGAGCAAUAUUACGGGAG | -2.32 ± 0.15 | -1.32 ± 0.18
48 | UUAGAGCAAUAUUACGGGGA | -2.48 ± 0.21 | -1 ± 0.2
49 | UUAGAGCAAUAUUACGGGUA | -3.06 ± 0.22 | -1.62 ± 0.19
50 | UUAGAGCAAUAUUACGGUUC | -2.42 ± 0.4 | –

Row | Sequence | self-splicing fitness (ln) (30 °C) | self-splicing fitness (ln) (37 °C)
51 | UUAGAGCAAUAUUACGUAUG | -1.6 ± 0.085 | -1.31 ± 0.12
52 | UUAGAGCAAUAUUACGUCAC | – | -2.76 ± 0.48
53 | UUAGAGCAAUAUUACGUCAU | -3.46 ± 0.31 | -2.25 ± 0.33
54 | UUAGAGCAAUAUUACGUCGA | -1.18 ± 0.12 | 0.172 ± 0.14
55 | UUAGAGCAAUAUUACGUGAA | -2.16 ± 0.12 | -0.588 ± 0.13
56 | UUAGAGCAAUAUUACGUGCC | – | -1.58 ± 0.33
57 | UUAUAGCAAUAUUACGAACU | -2.51 ± 0.18 | -0.944 ± 0.18
58 | UUAUAGCAAUAUUACGAAGC | -2.27 ± 0.42 | –
59 | UUAUAGCAAUAUUACGACCU | -3.38 ± 0.29 | -0.509 ± 0.18
60 | UUAUAGCAAUAUUACGACGA | -0.378 ± 0.098 | 0.212 ± 0.1
61 | UUAUAGCAAUAUUACGACUU | -1.85 ± 0.28 | -0.00223 ± 0.29
62 | UUAUAGCAAUAUUACGAUUC | -2.51 ± 0.27 | -1.17 ± 0.31
63 | UUAUAGCAAUAUUACGCAAC | -1.99 ± 0.34 | -1.6 ± 0.2
64 | UUAUAGCAAUAUUACGCAUA | -2.43 ± 0.29 | -0.953 ± 0.18
65 | UUAUAGCAAUAUUACGCGGG | -1.86 ± 0.17 | -1.92 ± 0.3
66 | UUAUAGCAAUAUUACGCUAU | -3.51 ± 0.44 | -4.04 ± 0.46
67 | UUAUAGCAAUAUUACGCUGG | -1.35 ± 0.14 | -0.828 ± 0.12
68 | UUAUAGCAAUAUUACGCUUC | -3.49 ± 0.32 | -3.42 ± 0.43
69 | UUAUAGCAAUAUUACGGAGG | -1.68 ± 0.31 | -2.37 ± 0.32
70 | UUAUAGCAAUAUUACGGAUA | -2.21 ± 0.32 | -0.955 ± 0.19
71 | UUAUAGCAAUAUUACGGGAA | -1.59 ± 0.29 | -1.26 ± 0.28
72 | UUAUAGCAAUAUUACGGGCG | -1.4 ± 0.15 | -1 ± 0.2
73 | UUAUAGCAAUAUUACGGUCA | -0.871 ± 0.13 | -0.305 ± 0.17
74 | UUAUAGCAAUAUUACGGUGG | -0.966 ± 0.11 | -0.924 ± 0.12
75 | UUAUAGCAAUAUUACGUAAG | -1.38 ± 0.08 | -0.386 ± 0.11

Row | Sequence | self-splicing fitness (ln) (30 °C) | self-splicing fitness (ln) (37 °C)
76 | UUAUAGCAAUAUUACGUAUA | -2.29 ± 0.15 | -1.42 ± 0.13
77 | UUAUAGCAAUAUUACGUAUG | -1.03 ± 0.12 | -0.187 ± 0.15
78 | UUAUAGCAAUAUUACGUGAG | -1.2 ± 0.087 | -0.672 ± 0.12
79 | UUAUAGCAAUAUUACGUGGC | -3.14 ± 0.37 | -2.45 ± 0.39
80 | UUCAAGCAAUAUUACGAACA | -2.07 ± 0.2 | -0.752 ± 0.13
81 | UUCAAGCAAUAUUACGACUC | -1.98 ± 0.24 | -0.791 ± 0.22
82 | UUCAAGCAAUAUUACGAGCG | -1.3 ± 0.087 | -0.359 ± 0.099
83 | UUCAAGCAAUAUUACGAGGG | -3.56 ± 0.23 | -1.91 ± 0.17
84 | UUCAAGCAAUAUUACGAUAC | -2.1 ± 0.17 | -2.58 ± 0.48
85 | UUCAAGCAAUAUUACGAUCC | -2.66 ± 0.27 | -1.55 ± 0.29
86 | UUCAAGCAAUAUUACGAUCU | -1.59 ± 0.092 | -0.996 ± 0.089
87 | UUCAAGCAAUAUUACGAUGU | -2.21 ± 0.13 | -1.31 ± 0.16
88 | UUCAAGCAAUAUUACGCAUG | -2.8 ± 0.13 | -1.7 ± 0.16
89 | UUCAAGCAAUAUUACGCUAU | -2.4 ± 0.15 | -1.63 ± 0.16
90 | UUCAAGCAAUAUUACGCUCU | -1.37 ± 0.17 | 0.387 ± 0.21
91 | UUCAAGCAAUAUUACGGACC | -2.45 ± 0.25 | -2.97 ± 0.21
92 | UUCAAGCAAUAUUACGGUAG | -0.693 ± 0.096 | -0.128 ± 0.13
93 | UUCAAGCAAUAUUACGGUCC | -1.46 ± 0.25 | -2.3 ± 0.42
94 | UUCAAGCAAUAUUACGUACA | -0.901 ± 0.11 | -0.478 ± 0.13
95 | UUCAAGCAAUAUUACGUAUU | -3.82 ± 0.17 | -2.66 ± 0.16
96 | UUCAAGCAAUAUUACGUCUU | – | -3.54 ± 0.33
97 | UUCAAGCAAUAUUACGUGCC | -0.891 ± 0.15 | -0.528 ± 0.17
98 | UUCAAGCAAUAUUACGUUCC | – | -1.79 ± 0.34
